{"source": "patent US20260022184", "key": {"CM7": {"target": "T1, CM7", "T1 chain": "MVPSAYTASG"}, "CM9": {"target": "T2, CM9", "T2 chain": "MVVSALTASG"}, "CM2": {"target": "T3, CM2", "T3 chain": "MVLSAVTASG"}, "CM6": {"target": "T4, CM6", "T4 chain": "MVPSAVTASG"}, "CM10": {"target": "T5, CM10", "T5 chain": "MVPSALTVSG"}, "CM8": {"target": "T6, CM8", "T6 chain": "MVASALTASG"}, "CM5": {"target": "T7, CM5", "T7 chain": "MVLSAPTASG"}}}
{"protein": "recombinant human MMP2 (protein) YNFFPRKPKWDKNQITYRIIGYTPDLDPETVDDAFARAFQVWSDVTPLRFSRIHDGEADIMINFGRWEHGDGYPFDGKDGLLAHAFAPGTGVGGDSHFDDDELWTLGEGQVVRVKYGNADGEYCKFPFLFNGKEYNSCTDTGRSDGFLWCSTTYNFEKDGKYGFCPHEALFTMGGNAEGQPCKFPFRFQGTSYDSCTTEGRTDGYRWCGTTEDYDRDKKYGFCPETAMSTVGGNSEGAPCVFPFTFLGNKYESCTSAGRSDGKMWCATTANYDDDRKWGFCPDQGYSLFLVAAHEFGHAMGLEHSQDPGALMAPIYTYTKNFRLSQDDIKGIQELYGASPDIDLGTGPTPTLGPVTPEICKQDIVFDGIAQIRGEIFFFKDRFIWRTVTPRDKPMGPLLVATFWPELPEKIDAVYEAPQEEKAVFFAGNEYWIYSASTLERGYPKPLTSLGLPPDVQRVDAAFNWSKNKKTYIFAGDKFWRYNEVKKKMDPGFPKLIADAWNAIPDNLDAVVDLQGGGHSYFFKGAYYLKLENQSLKSVKFGSIKSDWLGC", "values": [{"measurement": "in vitro protease digestion (data not shown)", "setting": "CM7", "value": "The other cleavable moieties (such as CM2, CM5-CM10) was also cleavable in vitro by both MMP2 and MMP9 (data not shown)"}, {"measurement": "in vitro protease digestion (data not shown)", "setting": "CM9", "value": "The other cleavable moieties (such as CM2, CM5-CM10) was also cleavable in vitro by both MMP2 and MMP9 (data not shown)"}, {"measurement": "in vitro protease digestion (data not shown)", "setting": "CM2", "value": "The other cleavable moieties (such as CM2, CM5-CM10) was also cleavable in vitro by both MMP2 and MMP9 (data not shown)"}, {"measurement": "in vitro protease digestion (data not shown)", "setting": "CM6", "value": "The other cleavable moieties (such as CM2, CM5-CM10) was also cleavable in vitro by both MMP2 and MMP9 (data not shown)"}, {"measurement": "in vitro protease digestion, polyacrylamide gel", "setting": "SB1902-C4", "value": "the non-cleavable G4S linker in SB1902-C4 was resistant to both MMP2 and MMP9 enzyme digestion"}, {"measurement": "in vitro protease digestion (data not shown)", "setting": "CM10", "value": "The other cleavable moieties (such as CM2, CM5-CM10) was also cleavable in vitro by both MMP2 and MMP9 (data not shown)"}, {"measurement": "in vitro protease digestion (data not shown)", "setting": "CM8", "value": "The other cleavable moieties (such as CM2, CM5-CM10) was also cleavable in vitro by both MMP2 and MMP9 (data not shown)"}, {"measurement": "digestion efficiency by SDS-PAGE (1 µg activated MMP2, 250 µg prodrug, 37° C., 5 hrs)", "setting": "SB1902-C2", "value": "about 90% of the prodrug SB1902-C2 was digested"}, {"measurement": "in vitro protease digestion, polyacrylamide gel", "setting": "SB1902-C2", "value": "The mutated substrate CM1 was cleavable in vitro by both MMP2 and MMP9 enzymes, with an enzyme dose-dependent manner"}, {"measurement": "in vitro protease digestion, polyacrylamide gel", "setting": "SB1902-C5", "value": "The mutated substrate CM4 was cleavable in vitro by both MMP2 and MMP9 enzymes, with an enzyme dose-dependent manner"}, {"measurement": "in vitro protease digestion (data not shown)", "setting": "CM5", "value": "The other cleavable moieties (such as CM2, CM5-CM10) was also cleavable in vitro by both MMP2 and MMP9 (data not shown)"}]}
{"protein": "recombinant human MMP9 (protein) MRTPRCGVPDLGRFQTFEGDLKWHHHNITYWIQNYSEDLPRAVIDDAFARAFALWSAVTPLTFTRVYSRDADIVIQFGVAEHGDGYPFDGKDGLLAHAFPPGPGIQGDAHFDDDELWSLGKGVVVPTRFGNADGAACHFPFIFEGRSYSACTTDGRSDGLPWCSTTANYDTDDRFGFCPSERLYTQDGNADGKPCQFPFIFQGQSYSACTTDGRSDGYRWCATTANYDRDKLFGFCPTRADSTVMGGNSAGELCVFPFTFLGKEYSTCTSEGRGDGRLWCATTSNFDSDKKWGFCPDQGYSLFLVAAHEFGHALGLDHSSVPEALMYPMYRFTEGPPLHKDDVNGIRHLYGPRPEPEPRPPTTTTPQPTAPPTVCPTGPPTVHPSERPTAGPTGPPSAGPTGPPTAGPSTATTVPLSPVDDACNVNIFDAIAEIGNQLYLFKDGKYWRFSEGRGSRPQGPFLIADKWPALPRKLDSVFEERLSKKLFFFSGRQVWVYTGASVLGPRRLDKLGLGADVAQVTGALRSGRGKMLLFSGRRLWRFDVKAQMVDPRSASEVDRMFPGVPLDTHDVFQYREKAYFCQDRFYWRVSSRSELNQVDQVGYVTYDILQCPED", "values": [{"measurement": "in vitro protease digestion (data not shown)", "setting": "CM7", "value": "The other cleavable moieties (such as CM2, CM5-CM10) was also cleavable in vitro by both MMP2 and MMP9 (data not shown)"}, {"measurement": "in vitro protease digestion (data not shown)", "setting": "CM9", "value": "The other cleavable moieties (such as CM2, CM5-CM10) was also cleavable in vitro by both MMP2 and MMP9 (data not shown)"}, {"measurement": "in vitro protease digestion (data not shown)", "setting": "CM2", "value": "The other cleavable moieties (such as CM2, CM5-CM10) was also cleavable in vitro by both MMP2 and MMP9 (data not shown)"}, {"measurement": "in vitro protease digestion (data not shown)", "setting": "CM6", "value": "The other cleavable moieties (such as CM2, CM5-CM10) was also cleavable in vitro by both MMP2 and MMP9 (data not shown)"}, {"measurement": "in vitro protease digestion, polyacrylamide gel", "setting": "SB1902-C4", "value": "the non-cleavable G4S linker in SB1902-C4 was resistant to both MMP2 and MMP9 enzyme digestion"}, {"measurement": "in vitro protease digestion (data not shown)", "setting": "CM10", "value": "The other cleavable moieties (such as CM2, CM5-CM10) was also cleavable in vitro by both MMP2 and MMP9 (data not shown)"}, {"measurement": "in vitro protease digestion (data not shown)", "setting": "CM8", "value": "The other cleavable moieties (such as CM2, CM5-CM10) was also cleavable in vitro by both MMP2 and MMP9 (data not shown)"}, {"measurement": "in vitro protease digestion, polyacrylamide gel", "setting": "SB1902-C2", "value": "The mutated substrate CM1 was cleavable in vitro by both MMP2 and MMP9 enzymes, with an enzyme dose-dependent manner"}, {"measurement": "in vitro protease digestion, polyacrylamide gel", "setting": "SB1902-C5", "value": "The mutated substrate CM4 was cleavable in vitro by both MMP2 and MMP9 enzymes, with an enzyme dose-dependent manner"}, {"measurement": "in vitro protease digestion (data not shown)", "setting": "CM5", "value": "The other cleavable moieties (such as CM2, CM5-CM10) was also cleavable in vitro by both MMP2 and MMP9 (data not shown)"}]}
